Laboratory results as given in the supplement of paper PMC11865577.

How the values were obtained:
Assay in all cases: pull-down binding Z-score (relative to library population); higher = stronger binding
Settings in all cases: RNA library: Library-2
[1] = test system: TO-3-N3 (biotin conjugate)
Outline: (§1)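 The RNA library, end-labelled with Cy5 or Cy3, was heat-folded in phosphate/NaCl/KCl buffer, and 1 μg was incubated at 25 °C for 60 min with streptavidin beads carrying 100 pmol of biotin-conjugated small molecule. Hot SDS released the bound RNA, which was then hybridised to a DNA barcode microarray for 20 h at 55.5 °C. For scoring binding, signal from beads alone was subtracted, replicate barcoded probes were averaged after discarding the highest and lowest, and each value was turned into a Z-score from the library mean and standard deviation.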

[2] = test system: TO-3-N3-2 (biotin conjugate)
Outline: as §1

TO-N3 (biotin conjugate) = test system: TO-N3 (biotin conjugate)
Outline: as §1

[3] = test system: TO-N3-2 (biotin conjugate)
Outline: as §1

Sequence | pull-down binding Z-score [1] | pull-down binding Z-score [2] | pull-down binding Z-score (TO-N3 (biotin conjugate)) | pull-down binding Z-score [3]
CAACUGAAAUCUAUCAGGCCGGUAGCACACCUUGUAAUGGUGUUGAAGGUUUUAAUUG [SHAPE_invivo_SARS-CoV-2_Motif_433] | -0.552 | -0.292 | -0.566 | 0.0571
AUAUAACUUCUAAAGAAACUUUGUAU | -0.911 | -0.347 | -1.28 | -1.1
UGAUGUUUGUCA | -0.46 | -0.778 | -0.762 | -1.2
AAGGAUGCUACUCCUU | -0.922 | -0.789 | -1.32 | -1.36
AUAACAAUACUAGAUGGAAUUUCACAGUAUUCACUGAGACUCAUUGAUGCUAUGAUGUUCACAUCUGAUUUGGCUACUAACAAUCUAGUUGU | 0.311 | 0.176 | 0.384 | -0.351
UGGGGUUGGGGUUGGGGUUGGGGUUGGGGUUGGGGUUGGGGUUGGGGU [G4_r(UGGGGU)8] | 7.69 | 8.63 | 6.59 | 4.93
UGGUUUGUAACACAAAGGAAUUUUUAUGAACCA [SHAPE_invivo_SARS-CoV-2_Motif_466] | 0.139 | 0.046 | -0.0419 | -0.605
GCGCUGCCAGAAACUGGCAAAAGCGC [bulge-AAA] | -0.765 | -0.295 | -0.936 | -0.689
UGGUUGGUUGGUUGGUUGGUUGGU [G4_r(UGGU)6] | 7.93 | 7.83 | 6.68 | 4.58
GAUUCAGAUCUUAAUGACUUUGUC [SHAPE_invivo_SARS-CoV-2_Motif_393] | -0.246 | -0.439 | -0.539 | -0.794
GCUGUUUAAUAGGGGCUGAACAUGUCAACAACUCAUAUGAGUGUGACAUACCCAUUGGUGCAGGUAUAUGCGCUAGUUAUCAGACUCAGACUAAUUCUCCUCGGC | -0.351 | 0.183 | 0.298 | -0.00417
GCUGGUAAUGUUCAACUCAGGGUUAUUGGACAUUCUAUGC [SHAPE_invivo_SARS-CoV-2_Motif_203] | -0.362 | -0.104 | -0.313 | -0.0925
UGGUUGGUUGGUUGGUUGGUUGGUUGGUUGGU [G4_r(UGGU)8] | 8.68 | 9.27 | 7.53 | 5.6
GUGGCCCUGAUGGCUAC | -0.362 | -0.622 | -0.412 | -0.0973
AUAAUAAGAGGCUGGAUUUUUGGUACUACUUUAGAUUCGAAGACCCAGUCCCUACUUAUUGU | -0.735 | -0.168 | -0.881 | -0.612
GGUUUGUUGCC [IAV_invivo_PB1_2_Motif_26+IAV_invivo_PB1_2_Motif_26] | 0.00909 | -0.261 | -0.146 | -0.374
ACAGGUUUUAUCGAACCUGU [IAV_invivo_PB1_2_Motif_25+IAV_invivo_PB1_2_Motif_25] | -0.147 | -0.571 | -0.828 | -1.54
GGCUUCAUCAAACAAUAUGGUGAUUGCC | -0.151 | -0.331 | -0.484 | -1.01
UCUCUAAUGAGA | -0.823 | -0.652 | -1.38 | -1.53
UACUUUACUCAGAGUA [SHAPE_invitro_SARS-CoV-2_Motif_368] | -1.06 | -0.589 | -1.58 | -1.64
UGUUGGCAUCAUUCUAUUGGAUUUGAUUACGUCUAUAAUCCGUUUAUGAUUGAUGUUCAACA | -0.515 | -0.183 | -0.712 | -0.625
CCUUCACACUCAAAGGCGGUGCACCAACAAAGGUUACUUUUGGUGAUGACACUGUGAUAGAAGUGCAAGG [SHAPE_invitro_SARS-CoV-2_Motif_51] | -0.728 | -0.155 | -0.605 | -0.0884
GCUUGAAGUGGAGC [IAV_invivo_NS1_NEP_8_Motif_14+IAV_invivo_NS1_NEP_8_Motif_14] | -0.454 | -0.23 | -0.23 | 0.386

Sequence | pull-down binding Z-score [1] | pull-down binding Z-score [2] | pull-down binding Z-score (TO-N3 (biotin conjugate)) | pull-down binding Z-score [3]
GUCUCGCACCCGCGAGAU [IAV_invivo_PB2_1_Motif_2+IAV_invivo_PB2_1_Motif_2] | 0.583 | -0.362 | 0.279 | -0.742
GCUGAAAUUGUUGACACUGUGAGUGCUUUGGUUUAUGAUAAUAAGCUUAAAGCACAUAAAGACAAAUCAGC | -0.842 | -0.129 | -0.634 | -0.342
GACUCAUUCAAGGAGGAGUU [SHAPE_invivo_SARS-CoV-2_Motif_469] | 0.25 | -0.149 | 0.111 | -0.297
UGGGAUAUUGCCCG [IAV_invivo_PB2_1_Motif_20+IAV_invivo_PB2_1_Motif_20] | -0.462 | -0.289 | -0.0714 | -0.104
UGAUGCAGCCAUGCAACGUAAGUUGGAAAAGAUGGCUGAUCA | -1.03 | -0.36 | -1.16 | -0.974
UAGAGGUACAACAGUACUUUUA | -0.813 | -0.423 | -1.12 | -1.28
UGAUGUCACAGAUGUGACUCA | -0.773 | -0.677 | -1.09 | -0.946
CUUGGAAAACUUCAAG | -0.101 | -0.265 | -0.471 | -0.863
GGUGUUUAUUACC | -0.454 | -0.382 | -0.968 | -0.855
UGAUGCGUAUUAUGACAUGGUUGGAUAUGGUUGAUACUAGUUUGUCUGGUUUUAAGCUAAAAGACUGUGUUAUGUAUGCAUCA | -0.867 | -0.285 | -0.861 | -0.569
UAUAAAGUUUAUUAUGGUAAUGCUUUAGAUCAAGCCAUUUCCAUGUGGGCUCUUAUA | -0.704 | -0.133 | -0.806 | -0.695
GUGAUAGAGCCAUGCCUAACAUGCUUAGAAUUAUGGCCUCAC | 0.323 | 0.0068 | 0.179 | -0.0566
AUUCUGAAGUUGUUCUUAAAAAGUUGAAGAAGUCUUUGAAU [DMSMaPseq_invitro_SARS-CoV-2_Motif_213] | -0.963 | -0.324 | -1.03 | -0.353
UGGCAUGGAAGUCA [DMSMaPseq_invitro_SARS-CoV-2_Motif_525] | 0.0287 | -0.289 | -0.262 | -0.318
AACGAACUUUAAAAUCUGUGUGGCUGUCACUCGGCUGCAUGCUUAGUGCACUCACGCAGUAUAAUUAAUAACUAAUUACUGUCGUU | -1.01 | -0.0969 | -0.781 | -0.131
UGAAGUAUUUUGUGAAAAUAGGACCUGAGCGCACCUGUUGUCUAUGUGAUAGACGUGCCACAUGCUUUUCCACUGCUUCA [SHAPE_invitro_SARS-CoV-2_Motif_342] | -0.573 | -0.335 | -0.477 | 0.0857
CUAACUGAGAAUAAAUAUUCUCAAUUAG | -0.985 | -0.937 | -1.59 | -1.87
GUACAUGGGCACACUUUCUUAUGAACAAUUUAAGAAAGGUGUUCAGAUAC [DMSMaPseq_invitro_SARS-CoV-2_Motif_106] | -0.377 | 0.0305 | -0.353 | -0.639
GGGUGGGUGGGUGGGUGGGUGGGU [G4_r(GGGU)6] | 9.01 | 10.9 | 7.43 | 5.53
CCACGCACAUUGCUAACUAAGGGCACACUAGAACCAGAAUAUUUCAAUUCAGUGUGUAGACUUAUGAAAACUAUAGGUCCAGACAUGUUCCUCGGAACUUGUCGG | -0.478 | -0.0669 | -0.189 | 0.139
GCCGGAUCAGACCGAGUGAUGGUAUCACCACUGGC [IAV_invivo_PB2_1_Motif_5+IAV_invivo_PB2_1_Motif_5] | -0.361 | -0.146 | -0.143 | 0.505
CUUAGGGACAACCUUGAACCUGGG [IAV_invivo_PA_3_Motif_29+IAV_invivo_PA_3_Motif_29] | -0.637 | -0.446 | -0.557 | 0.0467
GGUUUAACUUCUAUUAAAUGGGCAGAUAACAACUGUUAUCUUGCCACUGCAUUGUUAACACUCCAACAAAUAGAGUUGAAGUUUAAUCC | -0.726 | -0.273 | -0.793 | -0.63

Sequence | pull-down binding Z-score [1] | pull-down binding Z-score [2] | pull-down binding Z-score (TO-N3 (biotin conjugate)) | pull-down binding Z-score [3]
GUACGAUCGAGUGUAC [DMSMaPseq_invitro_SARS-CoV-2_Motif_538] | 0.143 | -0.222 | 0.105 | 0.0595
GAAUGGAGAACGCAGUGGGGCGCGAUCAAAACAACGUCGGCCCCAAGGUUUACCCAAUAAUACUGCGUCUUGGUUC | 0.148 | 0.382 | 0.452 | 0.849
CAAUGUGUGAUAUCAGACAACUACUAUUUGUAGUUGAAGUUGUUGAUAAGUACUUUG [DMSMaPseq_invitro_SARS-CoV-2_Motif_268] | -0.462 | -0.487 | 0.105 | -0.156
AAAUAAGUACGAUACUUACCUG [U1snRNP5ss-3] | -0.109 | 0.279 | -0.0474 | 0.324
CUGACUUAACAAAGCCUUACAUUAAGUGGGAUUUGUUAAAAUAUGACUUCACGGAAGAGAGGUUAAAACUCUUUGACCGUUAUUUUAAAUAUUGG | -0.707 | -0.143 | -0.517 | -0.193
UAGUACAACAGGAGUCACCUUUUGUUAUGAUGUCAGCACCACCUGCUCAGUAUGAACUUAAGCAUGGUACAUUUACUUGUGCUA | -0.521 | -0.518 | -0.168 | -0.0314
GGCCAGCAGAGGCC [IAV_invivo_PA_3_Motif_7+IAV_invivo_PA_3_Motif_7] | 0.905 | 0.0485 | 0.703 | -0.109
AAGGAGCUGGUGGCCAUAGUUACGGCGCCGAUCUAAAGUCAUUUGACUUAGGCGACGAGCUUGGCACUGAUCCUU [DMSMaPseq_invitro_SARS-CoV-2_Motif_14] | 0.0504 | 0.134 | 0.349 | 0.492
UAGGCACGGCACUUGUGAAAGAUCAGAAGCUGGUGUUUG | -0.0752 | -0.246 | 0.0405 | 0.362
GUACCAAAGGUGC [IAV_invivo_PB1_2_Motif_35+IAV_invivo_PB1_2_Motif_35] | -0.101 | -0.26 | -0.215 | -0.382
UCCCAGUUUUGGGG [IAV_invivo_PB1_2_Motif_27+IAV_invivo_PB1_2_Motif_27] | -0.953 | -0.902 | -1.36 | -1.6
GGUGUUUUAACU | -0.133 | -0.285 | -0.303 | -0.847
GCAGACGGGCGAUUUUGUUAAAGCCACUUGC | 0.648 | 0.604 | 0.889 | 1.57
UAGUACAUUUAUUAGUGAUGAAGUUGCGAGAGACUUGUCACUACAGUUUAAAAGACCAAUAAAUCCUACUG [SHAPE_invivo_SARS-CoV-2_Multi_21_ComplexLevel_1] | 0.561 | 0.312 | 0.716 | 0.172
ACAUGCCAAUUUAGAUUCUUGCAAAAGAGUCUUGAACGUGGUGUGU | -1.07 | -0.712 | -1.48 | -1.62
ACCAUUCUUCGUAAGGGUGGU | -0.172 | -0.207 | -0.223 | -0.847
CACAUGAAGGUAAAACAUUUUAUGUUUUACCUAAUGAUG | -0.659 | -0.743 | -0.73 | -0.256
GCACUACAGCUAAGGCUAUGGAGC [IAV_invivo_M1_M2_7_Motif_13+IAV_invivo_M1_M2_7_Motif_13] | -0.491 | -0.311 | -0.314 | 0.116
GAACUCUACUAAUGUCACUAUUGCAACCUACUGUACUGGUUCUAUACCUUGUAGUGUUUGUCUUAGUGGUUUAGAUUC [DMSMaPseq_invitro_SARS-CoV-2_Motif_135] | 0.03 | -0.164 | -0.105 | -0.471
UCCUCCCAGUGGCUGGUGGA [IAV_invivo_PB2_1_Motif_9+IAV_invivo_PB2_1_Motif_9] | -0.0747 | -0.322 | -0.228 | -0.225
GACUUAUGAAAACUAUAGGUC | -0.388 | 0.00298 | -0.299 | -0.341
